This passage reports Kd results from patent publication US20130344073A1 (OMEROS, published 2013).

The target in this assay is T1, human MASP-3 (human).
T1 construct: For selection and FACS it was full-length or a fragment, fused to an Fc domain or labelled with Dylight; also called MASP-3 antigen; rMASP-3
T1 chain: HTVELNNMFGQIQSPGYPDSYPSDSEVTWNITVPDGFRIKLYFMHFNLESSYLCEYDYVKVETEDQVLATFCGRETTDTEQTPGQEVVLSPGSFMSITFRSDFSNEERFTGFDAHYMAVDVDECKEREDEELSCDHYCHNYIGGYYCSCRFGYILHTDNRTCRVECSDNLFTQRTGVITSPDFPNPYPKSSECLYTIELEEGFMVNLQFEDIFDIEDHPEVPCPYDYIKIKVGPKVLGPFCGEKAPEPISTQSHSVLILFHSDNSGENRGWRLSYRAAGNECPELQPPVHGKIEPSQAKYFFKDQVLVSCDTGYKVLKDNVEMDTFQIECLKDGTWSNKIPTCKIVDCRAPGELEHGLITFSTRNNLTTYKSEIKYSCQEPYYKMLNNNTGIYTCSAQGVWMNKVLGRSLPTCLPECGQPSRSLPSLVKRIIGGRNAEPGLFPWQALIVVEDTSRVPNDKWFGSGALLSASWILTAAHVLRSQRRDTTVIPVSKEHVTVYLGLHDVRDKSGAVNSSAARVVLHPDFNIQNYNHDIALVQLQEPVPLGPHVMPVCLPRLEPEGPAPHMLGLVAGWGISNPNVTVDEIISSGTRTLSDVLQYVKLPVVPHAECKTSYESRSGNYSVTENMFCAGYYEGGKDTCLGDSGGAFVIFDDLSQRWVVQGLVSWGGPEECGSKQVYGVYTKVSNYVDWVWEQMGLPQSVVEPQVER
Briefly: saturation binding; DTLacO cells expressing the antibody stained with various concentrations of fluorescent-labeled soluble antigen. The source says: Recombinant antibodies were generated by cloning PCR-amplified V regions into a vector that supported expression of human IgG1 in 293F cells (Yabuki et al., PLoS ONE, 7(4):e36032 (2012)).

B1: MASP-3 specific clone M3J5 (antibody, V domains shown)
VH: AVTLDESGGGLQTPGGGLSLVCKASGFTFSSYAMGWMRQAPGKGLEYVAGIRSDGSFTLYATAVKGRATISRDNGQSTVRLQLNNLRAEDTATYFCTRSGNVGDIDAWGHGTEVIVSS
VL: ALTQPASVSANPGETVKITCSGGYSGYAGSYYYGWYQQKAPGSAPVTLIYYNNKRPSDIPSRFSGSLSGSTNTLTITGVRADDEAVYFCGSADNSGAAFGAGTTLTVL
notes: Chicken V regions; recombinant form is chimeric with human IgG1 and lambda constant regions; also called Clone 5; DTLacO clone M3J5
For the molecule B1, the equilibrium dissociation constant (Kd) (usually the concentration at which binding is half-saturated) was approximately 31 nM.
